The results in this text go back to the supplement of paper PMC12042874.

± gives the uncertainty stated by the source.

The data set is described as follows: amyloid nucleation score (Sup35N fusion, yeast selection) (log enrichment); library NNK1; higher = more nucleation; inactive = no reads after selection. The gist of the method:
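Using DiMSum, nucleation scores were taken as the log enrichment of output over input reads, centred on the mode score of non-aggregating sequences. The input and output reads came from Illumina sequencing of plasmid inserts, with sequences under 100 input reads excluded. The yeast were psi-negative, expressed Sup35N fused to peptides of 20 random codons, were induced with 100 μM copper sulfate for 24 hours, and were grown 7 days at 30°C on medium lacking adenine and uracil.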
As to LSLGLSGLVQPSDGTVG, the amyloid nucleation score was -0.284 ± 0.7. The figure for FAVLHNMMFMKYVRLFLVVT is 0.247 ± 0.45. The value for RSYSTCFPLIVLSK was 0.303 ± 0.28. The value for MMGLY was -0.038 ± 0.32; that for YVFSLVSESLQIIYHPLLLL was -0.189 ± 0.41. Regarding GRSRTRTRLLPGSEGGYDRP, the amyloid nucleation score is -1.64 ± 0.98. The value for VNGQYMRSHWFGDTTLLPIC was -0.316 ± 0.24; that for VNRYEVPLLGRRHDCEFSRT was -0.806 ± 1.1; that for YLFHMKARCMLFHKLLTYSR was “inactive”. The figure for TFYCYLSLGSHEKKADFSNN is 2.21 ± 0.15; for NLLSALNMVVFHNLEFYVIF it is 2.58 ± 0.25; for FCFMYDGHEAWSKAFSRRNV it is 0.196 ± 0.3. The value for AQYELLMQRNWYVGKDLVRG was -0.192 ± 0.42; that for SVVFGSSYRNAVGCWTWSQG was 0.6 ± 0.4; that for KNVSLRYILAYCRHYKLTHG was 0.19 ± 1.2. In turn, SLVALINNCSVSTKMGSLPY came in with an amyloid nucleation score of 0.87 ± 0.22. The figure for SFSLMGRFRSFMYACIVAAC is -0.936 ± 0.57; for LTLKTSNHFIYLSLLYIRVV it is -0.03 ± 0.3. The value for VSTNKRVVGMRRFGTYTRYV was -0.309 ± 0.6; that for SKSRMLPIGTRGCRNSQFVE was 1.06 ± 0.63; that for TCIWDKPVSSGL was -0.543 ± 1. The figure for IMLNLFHYGSSLQQFKTHH is 7.325 ± 0.054; for RYMLHDLIFPVSVVMRVSYE it is 0.92 ± 0.22. As to LYKLWQSKFTVYWLEGLTSY, the amyloid nucleation score result was “inactive”. Regarding ASRRSSHHSGRMHRAQLSGF, the amyloid nucleation score was -1.5 ± 1.8.

LWPKVLMVFTSM registered an amyloid nucleation score of 1.67 ± 0.15. The value for CWRLSYGLGVTFNKMLWPWK was 0.43 ± 0.56.

FGTLGK: the amyloid nucleation score turned out to be 1.88 ± 0.38.

Regarding PFQRGIYHWLYILGLVVELP, the amyloid nucleation score result was “inactive”. On to IMVTDKLSTCAETYIDISW, for which the amyloid nucleation score is -0.164 ± 0.75. The figure for TFYMTSSLST is 0.028 ± 0.67; for VAISQCLNNSNSRNIIVVKW it is 1.69 ± 0.34.
